Measured values from patent US7449563B2, “Methods and compositions for destabilizing microtubules” (Academia Sinica, priority 2003, dated 2008).

What was measured:
[1] = test system: HeLa cells; assay: Cell-based assay for CPAP activity: microtubule reassembly in cold-treated transfected HeLa cells; set-up: species or system human; conditions: transiently transfected HeLa cells
Procedure: Cell Culture and Transfection
(§1) HeLa cells were maintained in DMEM supplemented with 10% fetal bovine serum. cDNA clones encoding different portions of CPAP were subcloned, in an appropriate reading frame, into the CMV promoter-driven EGFP-C1 expression vector (Clontech, Palo Alto, Calif.). Transient transfections were performed using Lipofectamine 2000 (Invitrogen, Carlsbad, Calif.) according to the manufacturer's instructions.
Cold Treatment, Immunofluorescence and Confocal Microscopy
HeLa cells were grown on coverslips for at least 24 hr. Cold treatment was performed by incubating the cells at 4° C. for 1 hr, then replacing the cold medium with medium warmed to 30° C. and incubating the cells for 2 min at 30° C. The cells were then fixed with 1% formaldehyde for 30 min at room temperature.
The fixed cells were incubated in the presence of anti-α-tubulin monoclonal antibodies (N356, Amersham, Piscataway, N.J.) and anti-γ-tubulin polyclonal antibodies (Sigma, Saint Louis, Mo.). Bound anti-α-tubulin monoclonal antibodies (N356) were detected with Alexa 568, a Texas Red-conjugated goat anti-mouse IgG, or Alexa 647, a far-red fluorophore-conjugated goat anti-mouse IgG. Bound anti-γ-tubulin polyclonal antibodies were detected with Alexa 568 (Molecular Probes Inc.). The resulting […] signals were detected using a laser scanning confocal system (MRC 1000, Bio-Rad Laboratories, Hercules, Calif.).
The effect of various polypeptides derived from CPAP was determined by evaluating the amounts of mitotic spindle formation in the transfected cells. Decreased mitotic spindle formation indicated the presence of an activity that inhibited microtubule formation or destabilized microtubules.

[2] = test system: HeLa cells; assay: Flow cytometric cell cycle analysis of transfected HeLa cells; assay type: cell-based, human; conditions: transiently transfected HeLa cells
Procedure: as §1
Transfected HeLa cells were harvested 48 hr following transfection. Both the adherent cells and non-adherent cells present in the culture supernatants were collected and subjected to centrifugation. The resulting cell pellets were resuspended in PBS then fixed in 1% formaldehyde at 4° C. for 30 min. Following fixation, the cells were collected by centrifugation, washed, and resuspended in 70% cold ethanol. The resuspended cells were either stored at −20° C. overnight or immediately used for FACS analysis.
FACS analysis was performed by collecting the fixed cells by centrifugation and resuspending the cells in DNA staining solution (100 μg/ml propidium iodide, 0.1% Triton X, and 100 μM EDTA in PBS) for 30 min at room temperature. Cell cycle analysis was performed on a FACS Calibur (Becton-Dickinson, Mountain View, Calif.) with the signal gated to measure only GFP fluorescence. Ten thousand events were acquired and the percentages of cells in G0/G1, S, and G2/M were determined using the ModfitLT software (version 2.0, Verity Software House, Inc., Topsham, Me.). The apparent accumulation of cells with two genome copies (i.e., twice the genetic material of G0/G1 cells) is indicative of cell cycle arrest after DNA synthesis but prior to mitosis.

[3] = target: T1, polymerized microtubules (bovine brain tubulin) (Bos taurus, UniProt P81947+Q6B856); assay: Microtubule depolymerization assay (centrosomes omitted); assay type: biochemical; conditions: centrosomes absent; nocodazole 15 μM as positive control; data not shown
T1 construct: containing 125 μg bovine brain tubulin (Cytoskeleton, Denver, Colo.); purchased Cytoskeleton, Denver, Colo; host or cells: bovine brain (tissue-purified)
T1 sequence (P81947 whole entry): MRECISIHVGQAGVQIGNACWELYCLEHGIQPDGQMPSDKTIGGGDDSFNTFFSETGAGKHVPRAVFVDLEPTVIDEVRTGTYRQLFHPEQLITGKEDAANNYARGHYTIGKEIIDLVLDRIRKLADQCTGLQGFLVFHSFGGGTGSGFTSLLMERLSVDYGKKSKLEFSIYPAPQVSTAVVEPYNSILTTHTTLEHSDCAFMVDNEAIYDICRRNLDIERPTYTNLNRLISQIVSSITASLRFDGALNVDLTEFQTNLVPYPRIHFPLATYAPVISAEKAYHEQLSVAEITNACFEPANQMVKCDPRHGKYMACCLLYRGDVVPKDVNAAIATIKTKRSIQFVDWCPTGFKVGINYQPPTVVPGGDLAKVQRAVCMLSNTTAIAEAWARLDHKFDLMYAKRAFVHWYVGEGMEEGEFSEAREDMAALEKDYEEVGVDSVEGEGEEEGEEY
T1 sequence (Q6B856 whole entry): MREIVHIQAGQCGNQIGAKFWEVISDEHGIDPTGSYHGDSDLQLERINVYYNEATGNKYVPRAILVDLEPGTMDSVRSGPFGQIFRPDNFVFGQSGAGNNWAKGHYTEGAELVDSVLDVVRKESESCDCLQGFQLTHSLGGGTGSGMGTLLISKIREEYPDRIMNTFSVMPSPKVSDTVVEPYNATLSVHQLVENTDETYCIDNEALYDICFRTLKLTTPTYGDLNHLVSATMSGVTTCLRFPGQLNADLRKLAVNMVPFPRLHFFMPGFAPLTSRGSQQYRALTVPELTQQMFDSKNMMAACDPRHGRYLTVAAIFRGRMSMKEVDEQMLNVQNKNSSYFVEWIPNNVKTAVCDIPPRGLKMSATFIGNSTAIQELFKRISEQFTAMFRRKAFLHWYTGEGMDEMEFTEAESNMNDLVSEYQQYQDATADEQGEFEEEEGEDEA
Procedure: Microtubule Depolymerization Assay
In this assay, centrosomes are omitted from the above reaction mixtures to determine the effects of various truncated GST-CPAP proteins or synthetic peptides on microtubule polymerization in the absence of centrosomes. Polymerized microtubules were stained using FITC-conjugated anti-α-tubulin monoclonal antibodies, as above. Nocodazole (15 μM) was added to some reactions mixtures as a positive control for microtubule depolymerization.

[4] = target: T2, Bovine brain α/β tubulin (Bos taurus, UniProt P81947+Q6B856); assay: In vitro microtubule sedimentation assay; assay type: biochemical; conditions: 15 μM tubulin; 40 μM polypeptide
T2 construct: Bovine brain α/β tubulin (15 μM; Cytoskeleton Inc., Denver, Colo.); purchased Cytoskeleton Inc., Denver, Colo; host or cells: bovine brain (tissue-purified)
T2 sequence (P81947 whole entry): as the sequence (P81947 whole entry) above
T2 sequence (Q6B856 whole entry): as the sequence (Q6B856 whole entry) above
Procedure: In vitro Microtubule Sedimentation Assay
Bovine brain α/β tubulin (15 μM; Cytoskeleton Inc., Denver, Colo.) was pre-incubated with various amounts of truncated GST-CPAP proteins in a 50 μl reaction mixture comprising RG1 buffer (see Example 2) for 30 min at 37° C. Tubulin polymerization was initiated by adding 50 μl GMRG buffer (RG1 buffer supplemented with 12 mM MgCl2 and 50% glycerol), then incubating the reaction mixtures at 37° C. for 1.5 hr.
The reaction mixtures were then subjected to centrifugation at 300,000×g for 15 min at 37° C., in a TL-100 ultracentrifuge (Beckman Instruments, Fullerton, Calif.). Supernatants (S) and pellets (P) were analyzed by SDS-PAGE followed by staining with Coomassie blue.
Microtubule disassembly was confirmed using the microtubule sedimentation assay. Following centrifugation of the reaction mixtures, relatively soluble tubulin monomers and small multimers are found in the supernatant, while relatively insoluble polymerized tubulin is found in the pellet. To assay the ability of PN2-3-containing polypeptides to destabilize microtubules, reactions comprising 15 μM tubulin were incubated in the presence of increasing amounts of GST-PN2-3 (1.9, 3.8, 7.5, and 15 μM) or GST-PN2-2 (15, 30, or 40 μM), or in the absence of CPAP-derived polypeptides (control; FIG. 4A).

B1: GFP-PN2-3: GFP-tagged CPAP residues 311-422, expressed from a transfected vector (protein, UniProt Q9HC77 311-422, looked up, fragment)
chain: QKHDDSSEVANIEERPIKAAIGERKQTFEDYLEEQIQLEEQELKQKQLKEAEGPLPIKAKPKQPFLKRGEGLARFTNAKSKFQKGKESKLVTNQSTSEDQPLFKMDRQQLQR
modifications: GFP tag
notes: GFP-tagged CPAP residues 311-422, expressed from a transfected vector
[1]
  Inhibition of microtubule reassembly in cold-treated mitotic cells (in words): significantly inhibited microtubule reassembly
[2]; propidium iodide, GFP-gated
  Cell cycle distribution by DNA content (in words): progressive accumulation in G2/M
[2]; data not shown
  Cell morphology (in words): change in morphology (to round cells)
  Cell proliferation (in words): stopped proliferating

B2: GST-PN2-2: GST fusion polypeptide with sub-region PN2-2 of PN2 (CPAP residues 191-310 per b157) (protein)
chain: LSLLPDDQSQKHRSPGNTTTGERATCCFPSYVYPDPTQEETYPSNILSHEQSNFCRTAHGDFVLTSKRASPNLFSEAQYQEAPVEKNNLKEENRNHPTGESILCWEKVTEQIQEANDKNL
modifications: left off: a dimerising Fc or GST
[3]
  Disassembly of polymerized microtubules in the absence of centrosomes (in words): no such effect
[4]
  Distribution of tubulin in the supernatant and pellet (in words): little effect
